For this assay, the target named is Canonical-type transient receptor potential cation channel type 3 (TRPC3) (rabbit (endogenous in skeletal muscle)). Briefly: co-IP.

Turning to “GST-JP2 fragment F1-3 (a.a. 143-215) (from UniProt Q9ET78 143-215) (domain or fragment)”, the ratio of GST-band/TRPC3-band intensities normalised to F1-1 (set as 1) was determined as 0.25.

For the origin of these results see publication PMC2990405.
